Experimental data: the supplement of paper PMC10065799, “High-throughput profiling of sequence recognition by tyrosine kinases and SH2 domains using bacterial peptide display” (eLife, 2023)

target: Jak2 (UniProt O60674); test: phosphorylation enrichment, bacterial display (enrichment ratio); higher = better substrate or ligand; peptides without Tyr show the background
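Also: 11-residue human phosphosite peptides and single-mutation variants displayed on the E. coli surface, counted by deep sequencing, each peptide's frequency after selection divided by its frequency in the unselected input library; frequency after pTyr selection over input frequency; kinase dosed for 20-30% of maximal phosphorylation in three min.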

Sequence of Jak2 (O60674 whole entry, looked up): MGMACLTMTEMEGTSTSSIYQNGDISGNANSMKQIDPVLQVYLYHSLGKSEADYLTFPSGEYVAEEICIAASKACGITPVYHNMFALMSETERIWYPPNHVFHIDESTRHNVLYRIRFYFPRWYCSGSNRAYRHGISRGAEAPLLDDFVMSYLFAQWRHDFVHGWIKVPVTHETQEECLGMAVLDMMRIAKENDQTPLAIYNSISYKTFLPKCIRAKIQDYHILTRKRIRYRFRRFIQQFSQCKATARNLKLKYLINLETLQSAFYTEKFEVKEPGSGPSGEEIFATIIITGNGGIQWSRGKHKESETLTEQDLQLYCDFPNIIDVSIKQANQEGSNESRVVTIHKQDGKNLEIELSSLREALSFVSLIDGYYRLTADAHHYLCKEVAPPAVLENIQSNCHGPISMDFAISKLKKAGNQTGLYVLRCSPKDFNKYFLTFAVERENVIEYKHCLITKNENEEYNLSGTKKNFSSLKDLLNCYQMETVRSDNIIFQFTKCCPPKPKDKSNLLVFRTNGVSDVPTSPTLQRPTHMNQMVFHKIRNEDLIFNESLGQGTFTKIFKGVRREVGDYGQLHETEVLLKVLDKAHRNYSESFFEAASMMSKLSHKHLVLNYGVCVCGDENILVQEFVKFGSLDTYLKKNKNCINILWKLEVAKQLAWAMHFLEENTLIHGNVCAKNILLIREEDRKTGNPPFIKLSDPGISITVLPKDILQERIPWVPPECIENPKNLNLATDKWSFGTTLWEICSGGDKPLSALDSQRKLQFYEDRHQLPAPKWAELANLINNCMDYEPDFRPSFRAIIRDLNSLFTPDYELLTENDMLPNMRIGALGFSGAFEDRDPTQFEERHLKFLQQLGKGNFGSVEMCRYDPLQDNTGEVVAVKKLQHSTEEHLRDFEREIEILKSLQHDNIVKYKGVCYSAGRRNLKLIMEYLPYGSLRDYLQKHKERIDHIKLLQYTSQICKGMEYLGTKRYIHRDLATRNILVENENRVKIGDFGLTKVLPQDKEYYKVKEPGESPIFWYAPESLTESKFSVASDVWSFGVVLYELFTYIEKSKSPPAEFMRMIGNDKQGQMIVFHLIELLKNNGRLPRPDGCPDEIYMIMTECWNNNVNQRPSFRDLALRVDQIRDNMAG

Row | Sequence | phosphorylation enrichment
1 | REAAAYLHGRL [AGXT_Y297] | 1
2 | RESFKYFPSSL [CXXC1_Y218_YF] | 0.612
3 | FQVRRYDCDCD [CRYGS_Y21_G18V] | 1.32
4 | LLANAYIYVVQ [L1CAM_Y418] | 1.43
5 | FRRITYHNWRH [PDE6B_Y556_YF] | 0.627
6 | IRTIDYRYTVC [IDS_Y497_W502C] | 0.965
7 | IGSQRYQLGVR [RB1_Y446_K447Q] | 0.413
8 | VATRWYWSPEL [CDKL5_Y177_R178W] | 1.14
9 | AELVQYFMEHH [PTPN11_Y80_YF] | 0.695
10 | HKLSYYEYDFE [BTK_Y40] | 1.6
11 | RRNVFYFSFLL [PTEN_Y177_Y174N_YF] | 1.69
12 | YDGKDYIALNE [HLA-A_Y147] | 1.18
13 | SFLFHYADDSF [RAB3C_Y50_R49H] | 0.958
14 | EKEQNYDLTQV [ECD_Y448_E452Q] | 1.07
15 | QWLEQYTQAIE [LSP1_Y234] | 0.924
16 | PPAPRYHDSAV [LZTR1_Y119_H121D] | 0.979

target: Hck (UniProt P08631); test: as above
Sequence (P08631 whole entry, looked up): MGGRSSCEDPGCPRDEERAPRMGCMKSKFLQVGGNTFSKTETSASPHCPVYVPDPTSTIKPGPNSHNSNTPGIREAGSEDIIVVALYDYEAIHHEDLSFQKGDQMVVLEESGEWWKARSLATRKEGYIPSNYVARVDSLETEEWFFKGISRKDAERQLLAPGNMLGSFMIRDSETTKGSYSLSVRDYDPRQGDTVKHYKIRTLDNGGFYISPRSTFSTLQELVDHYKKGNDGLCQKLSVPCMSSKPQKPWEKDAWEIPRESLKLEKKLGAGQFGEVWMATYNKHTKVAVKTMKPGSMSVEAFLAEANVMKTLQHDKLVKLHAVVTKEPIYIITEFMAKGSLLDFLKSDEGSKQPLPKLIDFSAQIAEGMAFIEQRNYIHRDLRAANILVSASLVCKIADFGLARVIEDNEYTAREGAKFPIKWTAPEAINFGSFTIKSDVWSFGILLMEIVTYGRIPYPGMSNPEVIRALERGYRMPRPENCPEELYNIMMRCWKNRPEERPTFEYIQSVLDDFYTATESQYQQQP

Row | Sequence | phosphorylation enrichment
17 | REAAAYLHGRL [AGXT_Y297] | 0.479
18 | RESFKYFPSSL [CXXC1_Y218_YF] | 0.4
19 | FQVRRYDCDCD [CRYGS_Y21_G18V] | 0.498
20 | LLANAYIYVVQ [L1CAM_Y418] | 0.687
21 | FRRITYHNWRH [PDE6B_Y556_YF] | 0.527
22 | IRTIDYRYTVC [IDS_Y497_W502C] | 0.561
23 | IGSQRYQLGVR [RB1_Y446_K447Q] | 0.34
24 | VATRWYWSPEL [CDKL5_Y177_R178W] | 0.532
25 | AELVQYFMEHH [PTPN11_Y80_YF] | 0.66
26 | HKLSYYEYDFE [BTK_Y40] | 0.952
27 | RRNVFYFSFLL [PTEN_Y177_Y174N_YF] | 0.923
28 | YDGKDYIALNE [HLA-A_Y147] | 0.583
29 | SFLFHYADDSF [RAB3C_Y50_R49H] | 0.399
30 | EKEQNYDLTQV [ECD_Y448_E452Q] | 0.528
31 | QWLEQYTQAIE [LSP1_Y234] | 0.699
32 | PPAPRYHDSAV [LZTR1_Y119_H121D] | 0.684

test system: c-Src; test: as above

Row | Sequence | phosphorylation enrichment
33 | REAAAYLHGRL [AGXT_Y297] | 0.655
34 | RESFKYFPSSL [CXXC1_Y218_YF] | 0.852
35 | FQVRRYDCDCD [CRYGS_Y21_G18V] | 0.622
36 | LLANAYIYVVQ [L1CAM_Y418] | 0.602
37 | FRRITYHNWRH [PDE6B_Y556_YF] | 0.535
38 | IRTIDYRYTVC [IDS_Y497_W502C] | 0.461
39 | IGSQRYQLGVR [RB1_Y446_K447Q] | 0.343
40 | VATRWYWSPEL [CDKL5_Y177_R178W] | 0.647
41 | AELVQYFMEHH [PTPN11_Y80_YF] | 0.437
42 | HKLSYYEYDFE [BTK_Y40] | 2.48
43 | RRNVFYFSFLL [PTEN_Y177_Y174N_YF] | 1.29
44 | YDGKDYIALNE [HLA-A_Y147] | 0.48
45 | SFLFHYADDSF [RAB3C_Y50_R49H] | 0.466
46 | EKEQNYDLTQV [ECD_Y448_E452Q] | 0.506
47 | QWLEQYTQAIE [LSP1_Y234] | 0.406
48 | PPAPRYHDSAV [LZTR1_Y119_H121D] | 0.728

test system: c-Abl (mouse); test: as above

Row | Sequence | phosphorylation enrichment
49 | REAAAYLHGRL [AGXT_Y297] | 1.04
50 | RESFKYFPSSL [CXXC1_Y218_YF] | 0.454
51 | FQVRRYDCDCD [CRYGS_Y21_G18V] | 0.788
52 | LLANAYIYVVQ [L1CAM_Y418] | 0.983
53 | FRRITYHNWRH [PDE6B_Y556_YF] | 0.577
54 | IRTIDYRYTVC [IDS_Y497_W502C] | 0.65
55 | IGSQRYQLGVR [RB1_Y446_K447Q] | 0.451
56 | VATRWYWSPEL [CDKL5_Y177_R178W] | 0.771
57 | AELVQYFMEHH [PTPN11_Y80_YF] | 0.547
58 | HKLSYYEYDFE [BTK_Y40] | 1.26
59 | RRNVFYFSFLL [PTEN_Y177_Y174N_YF] | 2.83
60 | YDGKDYIALNE [HLA-A_Y147] | 0.909
61 | SFLFHYADDSF [RAB3C_Y50_R49H] | 0.718
62 | EKEQNYDLTQV [ECD_Y448_E452Q] | 1.42
63 | QWLEQYTQAIE [LSP1_Y234] | 10.2
64 | PPAPRYHDSAV [LZTR1_Y119_H121D] | 0.743

target: FGFR1 (UniProt P11362); test: as above
Sequence (P11362 whole entry, looked up): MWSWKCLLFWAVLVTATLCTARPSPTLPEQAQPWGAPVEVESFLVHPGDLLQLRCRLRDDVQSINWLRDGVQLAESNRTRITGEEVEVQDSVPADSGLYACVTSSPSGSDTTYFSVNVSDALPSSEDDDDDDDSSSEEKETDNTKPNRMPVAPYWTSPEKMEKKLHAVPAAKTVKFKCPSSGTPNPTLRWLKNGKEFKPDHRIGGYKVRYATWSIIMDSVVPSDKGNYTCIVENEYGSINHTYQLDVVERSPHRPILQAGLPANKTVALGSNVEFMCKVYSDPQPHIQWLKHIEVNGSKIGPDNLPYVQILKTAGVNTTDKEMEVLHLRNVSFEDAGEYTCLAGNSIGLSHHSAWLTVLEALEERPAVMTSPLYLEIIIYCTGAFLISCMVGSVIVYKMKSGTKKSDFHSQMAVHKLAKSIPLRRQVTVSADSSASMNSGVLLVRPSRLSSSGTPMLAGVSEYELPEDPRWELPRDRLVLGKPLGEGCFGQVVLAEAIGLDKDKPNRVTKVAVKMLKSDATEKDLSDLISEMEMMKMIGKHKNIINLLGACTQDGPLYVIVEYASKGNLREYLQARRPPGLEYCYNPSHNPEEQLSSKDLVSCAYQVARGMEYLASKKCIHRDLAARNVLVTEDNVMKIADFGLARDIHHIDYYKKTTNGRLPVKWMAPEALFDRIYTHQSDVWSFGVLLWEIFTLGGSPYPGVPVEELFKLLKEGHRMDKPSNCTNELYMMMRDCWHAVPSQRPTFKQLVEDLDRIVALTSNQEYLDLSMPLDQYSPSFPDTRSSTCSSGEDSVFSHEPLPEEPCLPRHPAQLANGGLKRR

Row | Sequence | phosphorylation enrichment
65 | REAAAYLHGRL [AGXT_Y297] | 0.671
66 | RESFKYFPSSL [CXXC1_Y218_YF] | 0.543
67 | FQVRRYDCDCD [CRYGS_Y21_G18V] | 0.557
68 | LLANAYIYVVQ [L1CAM_Y418] | 0.679
69 | FRRITYHNWRH [PDE6B_Y556_YF] | 0.432
70 | IRTIDYRYTVC [IDS_Y497_W502C] | 0.555
71 | IGSQRYQLGVR [RB1_Y446_K447Q] | 0.346
72 | VATRWYWSPEL [CDKL5_Y177_R178W] | 5.92
73 | AELVQYFMEHH [PTPN11_Y80_YF] | 0.652
74 | HKLSYYEYDFE [BTK_Y40] | 7.25
75 | RRNVFYFSFLL [PTEN_Y177_Y174N_YF] | 0.743
76 | YDGKDYIALNE [HLA-A_Y147] | 0.843
77 | SFLFHYADDSF [RAB3C_Y50_R49H] | 0.438
78 | EKEQNYDLTQV [ECD_Y448_E452Q] | 0.612
79 | QWLEQYTQAIE [LSP1_Y234] | 0.489
80 | PPAPRYHDSAV [LZTR1_Y119_H121D] | 0.532

test system: Fer (mouse); test: as above

Row | Sequence | phosphorylation enrichment
81 | REAAAYLHGRL [AGXT_Y297] | 0.502
82 | RESFKYFPSSL [CXXC1_Y218_YF] | 0.295
83 | FQVRRYDCDCD [CRYGS_Y21_G18V] | 0.497
84 | LLANAYIYVVQ [L1CAM_Y418] | 0.588
85 | FRRITYHNWRH [PDE6B_Y556_YF] | 0.571
86 | IRTIDYRYTVC [IDS_Y497_W502C] | 0.572
87 | IGSQRYQLGVR [RB1_Y446_K447Q] | 0.403
88 | VATRWYWSPEL [CDKL5_Y177_R178W] | 0.512
89 | AELVQYFMEHH [PTPN11_Y80_YF] | 0.463
90 | HKLSYYEYDFE [BTK_Y40] | 0.64
91 | RRNVFYFSFLL [PTEN_Y177_Y174N_YF] | 0.852
92 | YDGKDYIALNE [HLA-A_Y147] | 0.551
93 | SFLFHYADDSF [RAB3C_Y50_R49H] | 0.465
94 | EKEQNYDLTQV [ECD_Y448_E452Q] | 1.17
95 | QWLEQYTQAIE [LSP1_Y234] | 0.473
96 | PPAPRYHDSAV [LZTR1_Y119_H121D] | 0.448

test system: AncSZ; test: as above

Row | Sequence | phosphorylation enrichment
97 | REAAAYLHGRL [AGXT_Y297] | 0.891
98 | RESFKYFPSSL [CXXC1_Y218_YF] | 0.748
99 | FQVRRYDCDCD [CRYGS_Y21_G18V] | 1.19
100 | LLANAYIYVVQ [L1CAM_Y418] | 1.29
101 | FRRITYHNWRH [PDE6B_Y556_YF] | 0.785
102 | IRTIDYRYTVC [IDS_Y497_W502C] | 0.965
103 | IGSQRYQLGVR [RB1_Y446_K447Q] | 0.439
104 | VATRWYWSPEL [CDKL5_Y177_R178W] | 1.06
105 | AELVQYFMEHH [PTPN11_Y80_YF] | 1.02
106 | HKLSYYEYDFE [BTK_Y40] | 1.86
107 | RRNVFYFSFLL [PTEN_Y177_Y174N_YF] | 1.81
108 | YDGKDYIALNE [HLA-A_Y147] | 1.41
109 | SFLFHYADDSF [RAB3C_Y50_R49H] | 0.905
110 | EKEQNYDLTQV [ECD_Y448_E452Q] | 1.24
111 | QWLEQYTQAIE [LSP1_Y234] | 1.4
112 | PPAPRYHDSAV [LZTR1_Y119_H121D] | 0.73

target: MERTK (UniProt Q12866); test: as above
Sequence (Q12866 whole entry, looked up): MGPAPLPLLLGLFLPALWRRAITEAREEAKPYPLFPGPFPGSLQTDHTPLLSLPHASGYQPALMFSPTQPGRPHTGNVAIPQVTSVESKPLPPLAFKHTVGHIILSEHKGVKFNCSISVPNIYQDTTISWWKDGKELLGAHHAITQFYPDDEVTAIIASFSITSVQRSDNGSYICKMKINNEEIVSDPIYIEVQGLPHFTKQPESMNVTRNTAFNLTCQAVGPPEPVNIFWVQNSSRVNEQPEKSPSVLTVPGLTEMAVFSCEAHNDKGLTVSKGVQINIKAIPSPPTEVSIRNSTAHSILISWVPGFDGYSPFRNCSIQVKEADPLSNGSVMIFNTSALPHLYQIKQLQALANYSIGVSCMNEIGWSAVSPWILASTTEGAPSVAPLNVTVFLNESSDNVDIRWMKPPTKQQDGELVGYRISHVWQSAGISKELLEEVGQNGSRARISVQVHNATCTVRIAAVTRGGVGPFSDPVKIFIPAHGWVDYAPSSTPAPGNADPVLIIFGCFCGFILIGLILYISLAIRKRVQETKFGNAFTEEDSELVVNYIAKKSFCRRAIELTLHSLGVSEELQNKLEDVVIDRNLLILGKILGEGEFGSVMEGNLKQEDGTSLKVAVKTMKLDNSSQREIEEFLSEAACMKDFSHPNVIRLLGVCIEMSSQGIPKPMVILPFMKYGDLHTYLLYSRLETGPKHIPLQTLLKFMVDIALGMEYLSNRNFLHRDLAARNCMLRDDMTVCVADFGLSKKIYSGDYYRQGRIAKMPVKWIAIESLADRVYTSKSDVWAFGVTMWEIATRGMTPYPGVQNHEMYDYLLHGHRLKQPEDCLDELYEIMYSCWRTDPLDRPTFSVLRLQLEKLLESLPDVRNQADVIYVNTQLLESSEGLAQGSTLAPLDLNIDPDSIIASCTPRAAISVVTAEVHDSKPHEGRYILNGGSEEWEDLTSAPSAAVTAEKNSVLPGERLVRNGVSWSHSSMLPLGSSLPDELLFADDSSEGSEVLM

Row | Sequence | phosphorylation enrichment
113 | REAAAYLHGRL [AGXT_Y297] | 0.584
114 | RESFKYFPSSL [CXXC1_Y218_YF] | 0.421
115 | FQVRRYDCDCD [CRYGS_Y21_G18V] | 0.553
116 | LLANAYIYVVQ [L1CAM_Y418] | 0.516
117 | FRRITYHNWRH [PDE6B_Y556_YF] | 0.518
118 | IRTIDYRYTVC [IDS_Y497_W502C] | 0.478
119 | IGSQRYQLGVR [RB1_Y446_K447Q] | 0.385
120 | VATRWYWSPEL [CDKL5_Y177_R178W] | 6.3
121 | AELVQYFMEHH [PTPN11_Y80_YF] | 0.508
122 | HKLSYYEYDFE [BTK_Y40] | 3.67
123 | RRNVFYFSFLL [PTEN_Y177_Y174N_YF] | 0.937
124 | YDGKDYIALNE [HLA-A_Y147] | 0.457
125 | SFLFHYADDSF [RAB3C_Y50_R49H] | 0.412
126 | EKEQNYDLTQV [ECD_Y448_E452Q] | 0.569
127 | QWLEQYTQAIE [LSP1_Y234] | 0.37
128 | PPAPRYHDSAV [LZTR1_Y119_H121D] | 0.741
